These results are taken from patent publication US20040198705A1, “Modulation of steroid hormone uptake” (priority 2001, published 2004).

Like-named read-outs stand apart in the source and are kept apart here.

Assay [1] deals with megalin expressed on Brown Norway yolk sac carcinoma cells (BN16 cells) (UniProt P98158). Nature of the assay: cell-based or functional assay.
Assay [2] has as its target SHBG receptors in bovine epididymis membranes permeabilized in digitonin (bovine). Nature of the assay: homologous competition, filter binding: 125I-rSHBG (400 pg) on 600 µg bovine epididymis membranes permeabilized in digitonin, with testosterone, 4 °C 18 h; unlabelled rSHBG varied, 125I-rSHBG as the displaced tracer.
The target is the same in assay [3]. Put plainly: radioligand filter binding to digitonin-permeabilized bovine epididymis membranes, competition with unlabelled rSHBG.
For assay [4], the target named is SHBG receptors in bovine endometrium membranes permeabilized in digitonin (bovine). Nature of the assay: homologous competition, filter binding: 125I-rSHBG (400 pg) on 600 µg bovine endometrium membranes permeabilized in digitonin, with testosterone, 4 °C 18 h; unlabelled rSHBG varied, 125I-rSHBG as the displaced tracer.
The target of the next assay is purified native megalin. Put plainly: surface plasmon resonance, native megalin immobilised (51.4 fmol/mm^2), 1 µM testosterone/SHBG complexes in flow, blank chip subtracted. (In general: SPR reads the build-up and loss of mass on a sensor chip optically.)
For assay [5], the system named is SHBG receptors in bovine epididymis membranes. Nature of the assay: 125I-rSHBG binding to permeabilized epididymis membranes. Here is the method:
(§1) FIG. 8. 125I-rSHBG (400 pg) was incubated with 600 μg of membrane preparations from bovine epididymis (A) or endometrium (B) in the presence of the indicated concentrations of unlabelled rSHBG. Values are given as a percentage of 125I-rSHBG bound in the absence of competitor (100%). The data represent the means of four individual experiments (±S.E.M.). Where no error bar is shown, the values are smaller than the actual symbol.
(§2) To test whether recombinant SHBG (rSHBG) interacts with SHBG receptors and in particular whether rSHBG can act as an inhibitor of SHBG binding to an SHBG receptor, the binding of rSHBG to bovine epididymis and endometrium membranes permeabilized in digitonin was assayed. Binding was performed in the presence of testosterone, to achieve steroid hormone-steroid hormone binding protein complex formation.
(§3) Briefly, purified recombinant SHBG was labelled with ^125I using the Iodo-Gen™ method [specific radioactivity (13-15)×10^3 c.p.m./ng]. 400 pg of ^125I—SHBG was mixed with 600 μg of purified membranes (either bovine epididymis or bovine endometrium membranes permeabilized in digitonin) in a total volume of 200 μl of reaction buffer [10 mM Hepes, pH 7.4, 2 mM CaCl2, 1 mM MgCl2, 1% (w/v) BSA, 1 µM ZnCl2, […] testosterone and […] digitonin]. […] The filters were washed extensively with reaction buffer and the amount of bound radioactivity was determined.

Assay [6] has as its system SHBG receptors in bovine endometrium membranes. Put plainly: 125I-rSHBG binding to permeabilized endometrium membranes. The note with it: bovine endometrium membranes permeabilized in digitonin, competition with unlabelled rSHBG. As for the experimental part:
as §1, §2, §3

In another assay the target is SHBG receptor. The note with it: read-out: Kd of receptor binding, cited from earlier work.

UniProt P98158, sequence (P98158 26-4660 limits assumed): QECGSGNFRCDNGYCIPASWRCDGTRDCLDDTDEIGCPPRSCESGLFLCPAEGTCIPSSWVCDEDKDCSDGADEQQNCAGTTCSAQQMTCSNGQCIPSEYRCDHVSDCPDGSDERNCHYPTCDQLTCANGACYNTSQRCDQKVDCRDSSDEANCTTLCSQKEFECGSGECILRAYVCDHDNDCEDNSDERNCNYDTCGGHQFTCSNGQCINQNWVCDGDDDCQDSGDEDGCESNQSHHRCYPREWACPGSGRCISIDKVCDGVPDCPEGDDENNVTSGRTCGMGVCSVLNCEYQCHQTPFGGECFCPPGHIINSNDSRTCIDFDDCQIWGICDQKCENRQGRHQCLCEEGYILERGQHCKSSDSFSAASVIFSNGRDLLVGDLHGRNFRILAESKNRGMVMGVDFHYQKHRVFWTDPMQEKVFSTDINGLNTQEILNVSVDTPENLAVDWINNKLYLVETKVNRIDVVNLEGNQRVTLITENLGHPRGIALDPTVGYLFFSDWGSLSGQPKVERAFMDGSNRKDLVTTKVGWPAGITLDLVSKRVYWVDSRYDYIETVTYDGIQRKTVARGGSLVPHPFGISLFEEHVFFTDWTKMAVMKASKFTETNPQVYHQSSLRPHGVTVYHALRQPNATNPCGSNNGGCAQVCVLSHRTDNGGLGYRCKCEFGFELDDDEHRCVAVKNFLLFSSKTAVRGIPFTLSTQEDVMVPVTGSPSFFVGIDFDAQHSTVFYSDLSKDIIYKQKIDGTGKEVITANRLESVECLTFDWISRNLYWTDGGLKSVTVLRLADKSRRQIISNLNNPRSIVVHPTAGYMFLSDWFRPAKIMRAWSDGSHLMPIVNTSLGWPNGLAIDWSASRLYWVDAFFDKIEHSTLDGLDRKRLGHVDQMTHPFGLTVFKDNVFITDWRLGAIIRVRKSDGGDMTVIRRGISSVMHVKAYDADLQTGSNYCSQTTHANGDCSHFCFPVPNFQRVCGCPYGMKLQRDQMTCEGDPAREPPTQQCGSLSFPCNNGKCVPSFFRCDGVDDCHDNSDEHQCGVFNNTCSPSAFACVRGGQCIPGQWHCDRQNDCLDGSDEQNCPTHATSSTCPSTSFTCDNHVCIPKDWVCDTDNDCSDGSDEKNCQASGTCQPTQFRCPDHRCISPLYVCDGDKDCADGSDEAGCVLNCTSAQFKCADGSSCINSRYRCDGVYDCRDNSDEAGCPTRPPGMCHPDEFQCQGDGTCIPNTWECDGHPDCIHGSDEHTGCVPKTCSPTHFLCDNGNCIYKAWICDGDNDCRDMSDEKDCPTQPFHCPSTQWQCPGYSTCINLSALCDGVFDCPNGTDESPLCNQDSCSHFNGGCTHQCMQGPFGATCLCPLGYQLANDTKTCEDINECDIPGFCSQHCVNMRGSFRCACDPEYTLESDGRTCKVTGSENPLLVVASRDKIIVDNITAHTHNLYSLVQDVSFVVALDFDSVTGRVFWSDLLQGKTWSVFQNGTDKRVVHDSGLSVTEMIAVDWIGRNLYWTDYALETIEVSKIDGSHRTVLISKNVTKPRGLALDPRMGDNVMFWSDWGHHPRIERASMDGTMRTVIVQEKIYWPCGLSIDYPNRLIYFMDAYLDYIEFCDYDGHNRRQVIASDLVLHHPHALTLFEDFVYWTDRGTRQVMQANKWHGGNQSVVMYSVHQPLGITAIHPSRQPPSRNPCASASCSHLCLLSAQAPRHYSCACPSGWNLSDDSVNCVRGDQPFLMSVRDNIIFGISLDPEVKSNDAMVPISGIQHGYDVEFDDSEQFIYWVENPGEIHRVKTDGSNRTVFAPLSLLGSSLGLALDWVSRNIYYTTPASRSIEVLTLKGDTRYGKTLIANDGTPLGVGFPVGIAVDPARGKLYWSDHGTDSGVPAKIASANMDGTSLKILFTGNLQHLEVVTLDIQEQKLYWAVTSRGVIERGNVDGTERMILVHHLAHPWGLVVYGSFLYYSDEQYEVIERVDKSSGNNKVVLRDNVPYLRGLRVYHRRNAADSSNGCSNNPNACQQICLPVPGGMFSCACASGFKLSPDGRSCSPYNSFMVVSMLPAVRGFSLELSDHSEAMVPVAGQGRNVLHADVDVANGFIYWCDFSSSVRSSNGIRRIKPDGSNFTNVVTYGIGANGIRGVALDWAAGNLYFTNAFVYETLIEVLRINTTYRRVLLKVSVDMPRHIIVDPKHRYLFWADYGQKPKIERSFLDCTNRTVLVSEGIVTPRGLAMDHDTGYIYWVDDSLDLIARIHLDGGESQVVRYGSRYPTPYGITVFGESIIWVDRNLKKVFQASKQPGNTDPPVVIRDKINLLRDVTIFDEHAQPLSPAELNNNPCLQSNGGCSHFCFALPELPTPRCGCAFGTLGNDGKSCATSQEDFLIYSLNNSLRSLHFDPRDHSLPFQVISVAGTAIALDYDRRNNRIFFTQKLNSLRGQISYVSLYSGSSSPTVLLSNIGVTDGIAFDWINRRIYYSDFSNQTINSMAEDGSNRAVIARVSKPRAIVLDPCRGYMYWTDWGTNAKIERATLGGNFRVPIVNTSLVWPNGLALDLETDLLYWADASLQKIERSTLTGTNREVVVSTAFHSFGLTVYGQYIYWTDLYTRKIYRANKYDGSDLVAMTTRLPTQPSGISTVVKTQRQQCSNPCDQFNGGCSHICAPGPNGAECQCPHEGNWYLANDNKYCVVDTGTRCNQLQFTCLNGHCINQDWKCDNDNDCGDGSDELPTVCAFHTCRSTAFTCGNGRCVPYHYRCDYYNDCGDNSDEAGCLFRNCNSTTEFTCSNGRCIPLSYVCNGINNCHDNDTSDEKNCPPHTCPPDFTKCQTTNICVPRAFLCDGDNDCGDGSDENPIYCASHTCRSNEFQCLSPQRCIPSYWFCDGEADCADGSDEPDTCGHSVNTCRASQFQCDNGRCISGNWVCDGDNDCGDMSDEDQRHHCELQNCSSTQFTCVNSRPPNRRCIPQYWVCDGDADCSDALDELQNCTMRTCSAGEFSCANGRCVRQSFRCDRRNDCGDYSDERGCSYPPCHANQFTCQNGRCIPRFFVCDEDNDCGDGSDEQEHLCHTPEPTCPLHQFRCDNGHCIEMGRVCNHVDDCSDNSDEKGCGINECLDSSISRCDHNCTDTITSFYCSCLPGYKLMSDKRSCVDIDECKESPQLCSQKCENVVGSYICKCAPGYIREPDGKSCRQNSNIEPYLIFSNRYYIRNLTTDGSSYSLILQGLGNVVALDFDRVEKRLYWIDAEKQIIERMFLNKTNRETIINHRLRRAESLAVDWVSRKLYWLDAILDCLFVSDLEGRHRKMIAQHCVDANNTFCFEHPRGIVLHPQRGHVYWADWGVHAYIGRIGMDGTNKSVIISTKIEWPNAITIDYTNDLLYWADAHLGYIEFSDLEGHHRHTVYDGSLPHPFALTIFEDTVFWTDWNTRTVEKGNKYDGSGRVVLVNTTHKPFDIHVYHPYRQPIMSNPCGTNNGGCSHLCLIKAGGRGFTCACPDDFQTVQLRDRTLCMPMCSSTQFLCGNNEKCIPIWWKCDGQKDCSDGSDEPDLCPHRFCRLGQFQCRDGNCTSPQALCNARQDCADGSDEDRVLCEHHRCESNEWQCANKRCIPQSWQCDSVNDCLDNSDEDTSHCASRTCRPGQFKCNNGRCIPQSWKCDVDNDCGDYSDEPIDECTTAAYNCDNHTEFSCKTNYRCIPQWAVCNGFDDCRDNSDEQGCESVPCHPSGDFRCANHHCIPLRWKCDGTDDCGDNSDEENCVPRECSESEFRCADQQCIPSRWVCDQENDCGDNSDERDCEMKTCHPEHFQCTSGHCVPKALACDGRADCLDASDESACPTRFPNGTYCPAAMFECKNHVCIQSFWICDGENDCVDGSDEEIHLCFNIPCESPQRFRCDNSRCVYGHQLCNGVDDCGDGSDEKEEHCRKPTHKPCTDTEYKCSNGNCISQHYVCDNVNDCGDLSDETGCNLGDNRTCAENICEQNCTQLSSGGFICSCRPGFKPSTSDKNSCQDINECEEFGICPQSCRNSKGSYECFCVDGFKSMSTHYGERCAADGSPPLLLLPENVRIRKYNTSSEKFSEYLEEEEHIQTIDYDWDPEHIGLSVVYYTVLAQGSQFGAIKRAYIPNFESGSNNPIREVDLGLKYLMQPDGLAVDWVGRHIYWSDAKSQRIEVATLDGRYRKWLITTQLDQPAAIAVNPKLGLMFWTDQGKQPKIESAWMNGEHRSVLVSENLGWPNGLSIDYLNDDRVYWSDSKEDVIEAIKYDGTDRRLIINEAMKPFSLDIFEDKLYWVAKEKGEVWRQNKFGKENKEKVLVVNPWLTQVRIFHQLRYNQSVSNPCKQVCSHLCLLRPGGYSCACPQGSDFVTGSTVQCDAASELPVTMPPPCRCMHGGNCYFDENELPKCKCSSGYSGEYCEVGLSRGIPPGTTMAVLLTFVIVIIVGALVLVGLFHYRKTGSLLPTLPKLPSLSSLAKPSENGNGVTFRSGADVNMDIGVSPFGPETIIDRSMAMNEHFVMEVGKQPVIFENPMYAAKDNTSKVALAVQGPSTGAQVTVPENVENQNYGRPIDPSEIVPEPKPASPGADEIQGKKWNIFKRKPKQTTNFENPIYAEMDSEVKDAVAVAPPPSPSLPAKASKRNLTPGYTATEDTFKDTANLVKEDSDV

Turning to “complexes of [3H]-dihydrotestosterone (DHT) and sex hormone binding globulin (SHBG) (ligand)”, in assay [1], the cell-associated [3H]-DHT after 4 hours at 37° C. in the presence of GST (control) amounted to 300000 cpm.

For the molecule “fusion protein of GST and the receptor-associated protein (GST-RAP)”, in assay [1], the cell-associated [3H]-DHT after 4 hours at 37° C. in the presence of GST-RAP is 70000 cpm and the reduction in [3H]-DHT uptake in the presence of GST-RAP stood at 75%.

Usually Kd stands for the equilibrium constant for the complex coming apart. Turning to “recombinant SHBG (rSHBG), 125I-labelled, in the presence of testosterone (from UniProt P04278 30-402) (ligand)”, the results for the IC50 (read off the curve) in assay [2] and in assay [4] were 1000 nM and 3000 nM, respectively. In addition, the dissociation constant Kd in assay [3] came out at 500 nM.

With “testosterone/SHBG complex (sex hormone binding globulin with bound testosterone) (from UniProt P04278 30-402) (ligand)”, the Kd with purified native megalin stood at 140 nM.

B1: rSHBG: recombinant SHBG, 125I-labelled, tested for binding to SHBG receptors (protein, UniProt P04278 30-402, looked up)
Sex hormone-binding globulin: LRPVLPTQSAHDPPAVHLSNGPGQEPIAVMTFDLTKITKTSSSFEVRTWDPEGVIFYGDTNPKDDWFMLGLRDGRPEIQLHNHWAQLTVGAGPRLDDGRWHQVEVKMEGDSVLLEVDGEEVLRLRQVSGPLTSKRHPIMRIALGGLLFPASNLRLPLVPALDGCLRRDSWLDKQAEISASAPTSLRSCDVESNPGIFLPPGTQAEFNLRDIPQPHAEPWAFSLDLGLKQAAGSGHLLALGTPENPSWLSLHLQDQKVVLSSGSGPGLDLPLVLGLPLQLKLSMSRVVLSQGSKMKALALPPLGLAPLLNLWAKPQGRLFLGALPGEDSSTSFCLNGLWAQGQRLDVDQALNRSHEIWTHSCPQSPGNGTDASH
modifications: 125I-labelled
For the molecule B1, the “binding of 125I-labelled rSHBG (in words)” value is listed as “saturable binding” in assay [5] (bovine epididymis membranes permeabilized in digitonin, competition with unlabelled rSHBG) and “saturable binding” in assay [6]. The equilibrium dissociation constant (Kd) in assay [5] (permeabilized bovine epididymis membranes, in the presence of testosterone, read-out: affinity of binding (Kd)) came out at 500 nM.

B2: SHBG: native sex hormone-binding globulin, plasma carrier of androgens and estrogens (protein, listed as Homo sapiens)
chain: MESRGPLATSRLLLLLLLLLLRHTRQGWALRPVLPTQSAHDPPAVHLSNGPGQEPIAVMTFDLTKITKTSSSFEVRTWDPEGVIFYGDTNPKDDWFMLGLRDGRPEIQLHNHWAQLTVGAGPRLDDGRWHQVEVKMEGDSVLLEVDGEEVLRLRQVSGPLTSKRHPIMRIALGGLLFPASNLRLPLVPALDGCLRRDSWLDKQAEISASAPTSLRSCDVESNPGIFLPPGTQAEFNLRDIPQPHAEPWAFSLDLGLKQAAGSGHLLALGTPENPSWLSLHLQDQKVVLSSGSGPGLDLPLVLGLPLQLKLSMSRVVLSQGSKMKALALPPLGLAPLLNLWAKPQGRLFLGALPGEDSSTSFCLNGLWAQGQRLDVDQALNRSHEIWTHSCPQSPGNGTDASH
For the molecule B2, the equilibrium dissociation constant (Kd) on SHBG receptor (membrane suspensions) was 50 nM; on SHBG receptor (solubilized membranes) it was 500 nM.
